Assay results reported in patent publication EP0368684A1.

Experiments:
[1] = molecular target: hen egg white lysozyme (hen) (UniProt P00698); assay: calculated from the on-rate and off-rate of the stopped-flow analysis
[2] = molecular target: hen egg white lysozyme (hen) (UniProt P00698); assay: fluorescence quench titration, VHLYS concentration from quantitative amino acid analysis; details: scale: mole of lysozyme per mole of VHLYS domain
[3] = molecular target: hen egg white lysozyme (hen) (UniProt P00698); assay: fluorescence quench titration with lysozyme

Sequence of UniProt P00698 (P00698 19-147 limits assumed): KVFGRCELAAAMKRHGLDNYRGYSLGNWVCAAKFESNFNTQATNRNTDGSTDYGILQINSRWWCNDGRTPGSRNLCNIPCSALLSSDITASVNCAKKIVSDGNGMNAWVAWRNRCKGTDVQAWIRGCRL

- Kd [1]: 19 nM
- stoichiometry (mole of lysozyme per mole of VHLYS domain) [2]: 1.2
- Kd [3]: 12 nM
Substance: VHLYS domain (heavy chain variable domain of the D1.3 anti-lysozyme antibody)
